Assay results: IntAct's records for PubMed 25040622

B1: Proline-serine-threonine phosphatase-interacting protein 1 (Homo sapiens), O43586 (parent)
chain: MMPQLQFKDAFWCRDFTAHTGYEVLLQRLLDGRKMCKDMEELLRQRAQAEERYGKELVQIARKAGGQTEINSLRASFDSLKQQMENVGSSHIQLALTLREELRSLEEFRERQKEQRKKYEAVMDRVQKSKLSLYKKAMESKKTYEQKCRDADDAEQAFERISANGHQKQVEKSQNKARQCKDSATEAERVYRQSIAQLEKVRAEWEQEHRTTCEAFQLQEFDRLTILRNALWVHSNQLSMQCVKDDELYEEVRLTLEGCSIDADIDSFIQAKSTGTEPPAPVPYQNYYDREVTPLTSSPGIQPSCGMIKRFSGLLHGSPKTTSLAASAASTETLTPTPERNEGVYTAIAVQEIQGNPASPAQEYRALYDYTAQNPDELDLSAGDILEVILEGEDGWWTVERNGQRGFVPGSYLEKL
partner: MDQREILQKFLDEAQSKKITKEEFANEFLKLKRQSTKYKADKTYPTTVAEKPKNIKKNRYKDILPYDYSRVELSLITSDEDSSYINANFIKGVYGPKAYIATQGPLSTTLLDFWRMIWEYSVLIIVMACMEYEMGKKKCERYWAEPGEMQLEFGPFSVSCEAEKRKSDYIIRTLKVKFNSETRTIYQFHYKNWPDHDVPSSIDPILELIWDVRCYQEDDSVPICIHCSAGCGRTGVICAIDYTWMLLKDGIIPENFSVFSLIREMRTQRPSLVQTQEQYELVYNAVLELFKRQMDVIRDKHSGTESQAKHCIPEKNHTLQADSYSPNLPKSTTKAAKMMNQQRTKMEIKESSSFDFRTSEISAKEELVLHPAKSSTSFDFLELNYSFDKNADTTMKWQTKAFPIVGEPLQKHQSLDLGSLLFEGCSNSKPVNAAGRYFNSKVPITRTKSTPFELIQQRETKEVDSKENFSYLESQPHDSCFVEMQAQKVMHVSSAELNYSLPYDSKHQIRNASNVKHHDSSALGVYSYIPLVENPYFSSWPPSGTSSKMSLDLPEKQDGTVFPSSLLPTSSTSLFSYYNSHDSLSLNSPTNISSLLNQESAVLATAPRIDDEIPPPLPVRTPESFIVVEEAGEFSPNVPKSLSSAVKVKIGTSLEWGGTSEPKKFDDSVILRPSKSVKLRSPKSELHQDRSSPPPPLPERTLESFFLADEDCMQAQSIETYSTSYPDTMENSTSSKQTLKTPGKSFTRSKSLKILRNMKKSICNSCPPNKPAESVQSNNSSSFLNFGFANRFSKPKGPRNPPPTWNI

Variants of: B1
Settings: with ptn22_human PTPN22, Q9Y2R2

effect of a mutation on the interaction	Variant
disrupting interaction	E250Q

Variants of: B1
Settings: with ptn22_human PTPN22, Q9Y2R2
Remark: another data set of the same source

effect of a mutation on the interaction	Variant
disrupting interaction	W232A
